Assay [1] has as its target T1, recombinant human FcRn (Sino Biological Inc. Cat. No. CT009-H08H) (human, UniProt P55899 24-297; P61769 21-119).
T1 construct: also called immobilized FcRn
Nature of the assay: competition ELISA, pH 7.4; competitor biotinylated parent murine antibody; captured recombinant human FcRn; HEK-expressed IgG4. The method, then: (§1) The IgG4 antibodies were tested for antigen binding in a competition ELISA at pH 6.0 and pH 7.4. A Nunc Immuno MaxiSorp 96 well flat bottom microtitre plate (Fisher, cat. no. DIS-971-030J) was pre-coated with 1 μg/ml of an FcRn antibody specific for an IgG-binding epitope distinct from the albumin-binding region overnight at pH 7.4. The following day, 1 μg/ml recombinant human FcRn (Sino Biological Inc. cat. no. CT009-H08H) diluted in PBS pH 7.4 was added to the wells and incubated for 1 hour at 37° C. After washing the plates 3× with PBST pH 7.4, the plates were blocked with PBSM pH 7.4 for 1 hour at 37° C. From this point onwards, all wash and incubation steps were performed at the chosen assay pH (pH 6.0 or 7.4). […] The reaction was stopped with 3 M HCl, absorbance read at 450 nm on a Dynex Technologies MRX TC II plate reader and the binding curves plotted.
For orientation: An ELISA detects its analyte on a solid surface through an enzyme-linked reagent.

For assay [2], the target named is T1, recombinant human FcRn (Sino Biological …). Kind of assay: competition ELISA, pH 6.0: test IgG4 (from transient HEK per paragraph 152) titrated against fixed biotinylated murine parent antibody on recombinant human FcRn; streptavidin-HRP/TMB, OD450 [top panel]. As for the experimental part: as §1
(§2) NS0 produced humanized affinity matured IgGs were used in all assays other than G50_C10/Vκ3), which was purified from transiently expressing HEK cells.

Assay [3] concerns the target T2, monomeric His-tagged hFcRn (human, UniProt P55899 24-297; P61769 21-119, limits assumed).
T2 construct: also called human FcRn; not shown: His tag
Kind of assay: SPR Biacore 3000, antibody amine-coupled to CM5, His-tagged hFcRn analyte, pH 6.0, 25 C, 1:1 Langmuir. The method, then: (§3) The coupling was performed by injecting 2 μg/ml of each protein into 10 mM sodium acetate, pH 4.5 (GE Healthcare), using the amine coupling kit (GE Healthcare). HBS-P buffer pH 7.4 (0.01 M HEPES, 0.15 M NaCl, 0.005% surfactant P20) or phosphate buffer pH 6.0 (67 mM phosphate buffer, 0.15 M NaCl, 0.005% Tween 20) were used as running buffer and dilution buffer. […] All SPR experiments were conducted at 25° C. with a flow rate of 40 μl/min Binding data were zero-adjusted, and the reference cell value subtracted. The Langmuir 1:1 ligand binding model provided by the BIAevaluation software (version 4.1) was used to determine the binding kinetics. The closeness of the fit is described by the statistical value χ².
A general note: Surface plasmon resonance follows binding to a sensor surface in real time, without labels.

The target in assay [4] is T2, monomeric His-tagged hFcRn. Kind of assay: SPR Biacore 3000, antibody amine-coupled to CM5, His-tagged hFcRn analyte, pH 7.4, 25 C, 1:1 Langmuir; pH 7.4. The method, then:
as §3
(§4) The kinetic rate constants were obtained using a simple first-order (1:1) Langmuir bimolecular interaction model. The kinetic values represent the average of duplicates. The χ² (chi-square) values represent the fit to the binding model used.

The target of assay [5] is T1, recombinant human FcRn (Sino Biological …). Nature of the assay: competition ELISA, pH 7.4: test IgG4 (from transient HEK per paragraph 152) titrated against fixed biotinylated murine parent antibody on recombinant human FcRn; streptavidin-HRP/TMB, OD450 [top panel]. As for the experimental part: as §1, §2
Assay [6] addresses T3, FcRn (analyte in the Biacore T200 study) (human, UniProt P55899 24-297; P61769 21-119, limits assumed).
T3 construct: also called human FcRn
Nature of the assay: SPR Biacore T200, antibody amine-coupled to CM5, FcRn analyte, 1:1 model; pH not stated. As for the experimental part:
(§5) Antibodies were immobilized onto a Series S CM5 sensor chip surface using standard amine coupling chemistry and analyte (FcRn) flowed over the surface. A 2-fold dilution range was selected from 50-0.01 nM FcRn. The association phase of FcRn analyte was monitored for 450 seconds, and dissociation was initially measured for either 250 or 2500 seconds, at 40 μl/min Fc1 was a reference channel and was subtracted from other flow cells to correct for non-specific binding. […] Kinetic values are based on a 1:1 binding model (Table 5).

Assay [7] concerns the target T2, monomeric His-tagged hFcRn. Kind of assay: SPR Biacore 3000, antibody amine-coupled to CM5, His-tagged hFcRn analyte, pH 6.0, 25 C, 1:1 Langmuir; pH 6.0. As for the experimental part:
as §3, §4

In assay [8] the target is T1, recombinant human FcRn (Sino Biological …). Nature of the assay: competition ELISA, pH 7.4; competitor biotinylated parent murine antibody; captured recombinant human FcRn; HEK-expressed IgG4. As for the experimental part:
as §1, §2
The source holds these as a separate data set.

The target is the same in assay [9]. Nature of the assay: competition ELISA, pH 6.0; competitor biotinylated parent murine antibody; captured recombinant human FcRn; HEK-expressed IgG4. The method, then: as §1, §2
Assay [10] has as its target T2, monomeric His-tagged hFcRn. Nature of the assay: SPR Biacore 3000, antibody amine-coupled to CM5, His-tagged hFcRn analyte, pH 7.4, 25 C, 1:1 Langmuir. As for the experimental part:
as §3, §4

Assay [11] concerns the target T3, FcRn (analyte in the Biacore T200 study). Nature of the assay: SPR Biacore T200, antibody amine-coupled to CM5, FcRn analyte, 1:1 model; chip with the three best variants (repeat run, dissociation 4500 s per paragraph 156); pH not stated. As for the experimental part:
as §5

Assay [12] deals with T1, recombinant human FcRn (Sino Biological …). Nature of the assay: competition ELISA, pH 6.0; competitor biotinylated parent murine antibody; captured recombinant human FcRn; HEK-expressed IgG4. The method, then: as §1
The source holds these as a separate data set.

In assay [13] the target is T3, FcRn (analyte in the Biacore T200 study). Kind of assay: SPR Biacore T200, antibody immobilized, FcRn analyte. As for the experimental part: as §5

“And” between values parts separate entries of the source, which are not always exact repeats. Equal values may be shown once.

T2 sequence (P55899 24-297 limits assumed, chain 1 of 2): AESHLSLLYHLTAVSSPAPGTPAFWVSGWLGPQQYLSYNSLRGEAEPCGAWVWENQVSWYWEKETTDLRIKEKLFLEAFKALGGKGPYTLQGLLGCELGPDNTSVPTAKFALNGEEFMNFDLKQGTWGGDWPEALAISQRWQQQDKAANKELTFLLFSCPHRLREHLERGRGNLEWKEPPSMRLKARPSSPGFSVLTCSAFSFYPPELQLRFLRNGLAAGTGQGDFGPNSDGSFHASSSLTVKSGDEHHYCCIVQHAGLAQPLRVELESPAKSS
T2 sequence (P61769 21-119 limits assumed, chain 2 of 2): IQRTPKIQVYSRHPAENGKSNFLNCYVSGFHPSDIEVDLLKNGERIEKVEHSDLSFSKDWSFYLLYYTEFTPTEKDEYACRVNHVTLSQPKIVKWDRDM
T1 sequence (P55899 24-297 limits assumed, chain 1 of 2): as the sequence (P55899 24-297 limits assumed, chain 1 of 2) above
T1 sequence (P61769 21-119 limits assumed, chain 2 of 2): as the sequence (P61769 21-119 limits assumed, chain 2 of 2) above
T3 sequence (P55899 24-297 limits assumed, chain 1 of 2): as the sequence (P55899 24-297 limits assumed, chain 1 of 2) above
T3 sequence (P61769 21-119 limits assumed, chain 2 of 2): as the sequence (P61769 21-119 limits assumed, chain 2 of 2) above

B1: G50_C10/Vκ3 (antibody, V domains shown)
VH: EVQLVESGGGLVKPGGSLKLSCAASGFTFSDYGMHWVRQAPGKGLEWVAYISSGSSTIYYADTVKGRFTISRDNAKNTLYLQMNSLRAEDTAMYYCARLESTTAVGDYWGQGTSVTVSS
VL: DIVMTQSPDSLSASVGDRVTITCKASQSVSNDVAWYQQKPGQPPKLLIYYASNRYTGVPDRFSGSGYGTDFTLTISSLQAEDVAVYFCQQDYSSLTFGQGTKLEIK
notes: Bivalent IgG4 with S241P, human kappa; also called SYNT002-16; G50_C10/Vκ3 (HEK)
As to B1, the “Average relative IC50 (relative to humanized parent)” value in [1] came to 0.7; in assay [8], 0.54; in [9], 0.89; in [12], 0.9. Besides, the “IC50 (read off the curve)” value was around 0.5 µg/mL in [2] and around 0.4 µg/mL in assay [5]. Also, the Kd in [3] is 400 pM; in [10], 0.66 pM; in [11], 54 pM. For the same molecule, the koff was 4.7e-05 s⁻¹ in assay [3]; 8e-08 s⁻¹ in assay [4]; ≤ 1e-05 s⁻¹ and 2.34e-05 s⁻¹ in assay [6]; 1.54e-05 s⁻¹ in assay [11]. Besides, the kon in assay [6] was 399000 M⁻¹ s⁻¹ and 298000 M⁻¹ s⁻¹; in [7], 110000 M⁻¹ s⁻¹; in assay [10] it was 120000 M⁻¹ s⁻¹; in assay [11], 283000 M⁻¹ s⁻¹. In assay [13], the “fold improvement in affinity compared to the humanized parental, on average” value was determined as 50 fold.

One may read the Kd as the free concentration of one partner at which half of the binding sites on the other are occupied at equilibrium, for simple one-to-one binding. A high value points to lower affinity. By koff is commonly meant the rate constant with which the complex falls apart. Broadly, the kon is a measure of how fast the partners come together.

The values above are taken from patent US20190135915A1 (SYNTIMMUNE, published 2019).
